One assay deals with Nano-CRAF^CAT (human) (UniProt P04049). The assay is described as follows: FRET or BRET.
Assay [1] concerns the target E275K-BRAF^FL-RLuc8 (human) (UniProt P15056). The assay is described as follows: FRET or BRET.

As to “CRAF^REG construct containing the BRAF-CRD, Halo-tagged (domain or fragment)”, the increase of BRET signal over CRAF^REG with Nano-CRAF^CAT (human) is 40%.
In assay [1], “Venus-KRAS^G12V (from UniProt P01116 1-189) (natural protein)” had an increase of BRETmax over WT of 15%.

The values are drawn from article PMC9677513.
